Measurements from patent CN111138529A (INST MILITARY MEDICINE ACADEMY MILITARY SCIENCES PLA, dated 2020).

Molecular target: T1, RESTV GP (RESTV, UniProt Q66799 34-651)
T1 sequence: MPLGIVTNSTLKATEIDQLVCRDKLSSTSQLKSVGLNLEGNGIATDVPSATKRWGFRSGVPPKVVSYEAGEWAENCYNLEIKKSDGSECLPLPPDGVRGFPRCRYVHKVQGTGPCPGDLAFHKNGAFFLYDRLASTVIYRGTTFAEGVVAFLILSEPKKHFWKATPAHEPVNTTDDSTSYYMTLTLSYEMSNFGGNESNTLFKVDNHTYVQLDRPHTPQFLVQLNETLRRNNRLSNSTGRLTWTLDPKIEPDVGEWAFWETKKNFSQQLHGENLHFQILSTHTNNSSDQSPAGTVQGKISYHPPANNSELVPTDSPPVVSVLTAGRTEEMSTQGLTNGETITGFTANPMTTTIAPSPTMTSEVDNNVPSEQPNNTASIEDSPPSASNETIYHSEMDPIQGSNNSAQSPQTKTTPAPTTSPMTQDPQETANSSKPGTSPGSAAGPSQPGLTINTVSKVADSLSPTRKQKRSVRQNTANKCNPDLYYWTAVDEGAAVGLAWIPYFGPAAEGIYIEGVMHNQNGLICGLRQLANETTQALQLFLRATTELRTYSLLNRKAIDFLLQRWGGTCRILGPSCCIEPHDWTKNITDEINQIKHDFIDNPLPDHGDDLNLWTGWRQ
Assay: ELISA, coated GP 1μg/mL

B1: 单克隆抗体5E1 (antibody, V domains shown)
VH: EVQLVESGGGVVQSGRSLRLSCAASGFTFSNYGMHWVRRAPGKGLEWVAVISYDGSIKYYADAVQGRFTISRDNSKNTLYLQMNSVRAEDRAVYYCAKGSRVVATLNFFDLWGRGTLVTVSS
VL: AIRMTQSPSSLSASVGDRVTITCRASQDIRNFLAWYQQKPEKAPKLLVYTASRRESGVPPRLSGSGSGTEYTLTISSLQPEDFATYYCQQYYSTPPTFGQGTKVDIKT
binding result: no binding
